How the values were obtained:
[1] = target: HU-3pE-beta-Amyloid (human); experiment: SPR; HU-3pE-beta-Amyloid 0.6 to 4.5 nM
[2] = target: cynomolgus FcRn (cynomolgus) (UniProt Q8SPV9); experiment: FcRn binding affinity; method not described; average of 5-6 replicates
human FcRn (human) = human FcRn (human) (UniProt P55899); experiment: as above

cynomolgus FcRn (cynomolgus), sequence (Q8SPV9 24-297 limits assumed, chain 1 of 2): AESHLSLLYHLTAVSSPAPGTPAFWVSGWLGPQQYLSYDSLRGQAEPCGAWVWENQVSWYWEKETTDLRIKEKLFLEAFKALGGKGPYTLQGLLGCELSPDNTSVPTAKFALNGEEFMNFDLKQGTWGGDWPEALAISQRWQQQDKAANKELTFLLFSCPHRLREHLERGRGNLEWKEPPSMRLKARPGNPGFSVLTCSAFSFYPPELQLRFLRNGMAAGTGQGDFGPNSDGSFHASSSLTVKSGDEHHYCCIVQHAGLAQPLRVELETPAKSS
cynomolgus FcRn (cynomolgus), sequence (Q8SPW0 21-119 limits assumed, chain 2 of 2, further chain): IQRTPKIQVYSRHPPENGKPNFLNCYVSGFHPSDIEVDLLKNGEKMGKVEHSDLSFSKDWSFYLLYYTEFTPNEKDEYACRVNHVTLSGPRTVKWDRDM

Kd [1] | koff [1] | kon [1] | Kd [2] | Kd (human FcRn (human)) | Substance
0.0379 nM | 0.000156 s⁻¹ | 4.11e+06 M⁻¹ s⁻¹ | – | – | Control mAb (antibody)
– | – | – | 430 nM | 443 nM | IgG1 control (antibody)

— patent US20220177560A1
